1 molecule from patent publication US20030108554A1 (published 2003) can be followed below.

Data set [1] has as its target T1, purified yeast recombinant GIP90 with FLAG tag at N-terminal position and 6 histidine tail at C-terminal position.
T1 chain: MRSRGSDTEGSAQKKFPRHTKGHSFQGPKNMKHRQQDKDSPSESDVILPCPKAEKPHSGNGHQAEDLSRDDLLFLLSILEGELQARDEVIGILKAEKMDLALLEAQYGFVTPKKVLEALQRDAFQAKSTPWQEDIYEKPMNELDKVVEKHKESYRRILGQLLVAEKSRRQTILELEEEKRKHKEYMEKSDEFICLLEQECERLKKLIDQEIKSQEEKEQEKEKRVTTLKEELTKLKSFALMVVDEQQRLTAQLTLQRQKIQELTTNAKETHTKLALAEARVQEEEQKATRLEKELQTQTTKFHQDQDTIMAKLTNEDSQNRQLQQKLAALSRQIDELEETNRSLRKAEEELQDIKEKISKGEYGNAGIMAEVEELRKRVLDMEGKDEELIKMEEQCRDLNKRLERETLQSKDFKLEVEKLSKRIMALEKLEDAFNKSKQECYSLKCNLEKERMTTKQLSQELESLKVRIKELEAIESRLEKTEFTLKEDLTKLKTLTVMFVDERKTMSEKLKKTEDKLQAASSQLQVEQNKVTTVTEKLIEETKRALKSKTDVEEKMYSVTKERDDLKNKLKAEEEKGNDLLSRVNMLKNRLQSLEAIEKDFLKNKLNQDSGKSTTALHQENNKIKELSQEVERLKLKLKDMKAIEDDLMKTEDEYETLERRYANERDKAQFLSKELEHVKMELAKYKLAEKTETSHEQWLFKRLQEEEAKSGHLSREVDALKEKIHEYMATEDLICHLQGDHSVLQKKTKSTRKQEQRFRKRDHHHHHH

For data set [2], the target named is T2, pol κ (UniProt Q9UBT6 1-870).
T2 construct: Tested in yeast two-hybrid (GAL4 domain fusion); also called primary protein product of the POLK
T2 sequence (looked up): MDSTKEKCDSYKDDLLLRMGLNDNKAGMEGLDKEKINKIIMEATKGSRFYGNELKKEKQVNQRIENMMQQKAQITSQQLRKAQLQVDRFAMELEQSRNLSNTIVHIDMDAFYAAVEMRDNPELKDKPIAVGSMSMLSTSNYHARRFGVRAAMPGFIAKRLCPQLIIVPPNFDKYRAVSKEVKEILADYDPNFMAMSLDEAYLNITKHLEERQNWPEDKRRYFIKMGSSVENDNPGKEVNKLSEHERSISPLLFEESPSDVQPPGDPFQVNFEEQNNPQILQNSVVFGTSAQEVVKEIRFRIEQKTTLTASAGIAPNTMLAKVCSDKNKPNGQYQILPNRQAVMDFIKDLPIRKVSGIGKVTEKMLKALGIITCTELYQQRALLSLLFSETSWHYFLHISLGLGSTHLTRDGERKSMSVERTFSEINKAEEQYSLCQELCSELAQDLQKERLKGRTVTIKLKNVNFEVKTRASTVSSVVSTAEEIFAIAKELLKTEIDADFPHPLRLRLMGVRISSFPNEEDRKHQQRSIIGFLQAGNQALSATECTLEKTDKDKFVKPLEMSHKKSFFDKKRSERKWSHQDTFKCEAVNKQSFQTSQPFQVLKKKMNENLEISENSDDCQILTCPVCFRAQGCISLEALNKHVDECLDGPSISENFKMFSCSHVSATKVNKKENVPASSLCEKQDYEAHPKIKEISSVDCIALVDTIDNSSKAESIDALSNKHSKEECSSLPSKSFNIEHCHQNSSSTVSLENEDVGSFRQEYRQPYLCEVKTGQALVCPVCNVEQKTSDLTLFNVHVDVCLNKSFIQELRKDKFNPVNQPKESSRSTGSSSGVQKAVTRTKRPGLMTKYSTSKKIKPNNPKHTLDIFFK
Nature of the data set: yeast two-hybrid.

B1: Goodpasture antigen binding protein (GPBP) (enzyme, UniProt Q9Y5P4 1-624, looked up)
chain: MSDNQSWNSSGSEEDPETESGPPVERCGVLSKWTNYIHGWQDRWVVLKNNALSYYKSEDETEYGCRGSICLSKAVITPHDFDECRFDISVNDSVWYLRAQDPDHRQQWIDAIEQHKTESGYGSESSLRRHGSMVSLVSGASGYSATSTSSFKKGHSLREKLAEMETFRDILCRQVDTLQKYFDACADAVSKDELQRDKVVEDDEDDFPTTRSDGDFLHSTNGNKEKLFPHVTPKGINGIDFKGEAITFKATTAGILATLSHCIELMVKREDSWQKRLDKETEKKRRTEEAYKNAMTELKKKSHFGGPDYEEGPNSLINEEEFFDAVEAALDRQDKIEEQSQSEKVRLHWPTSLPSGDAFSSVGTHRFVQKPYSRSSSMSSIDLVSASDDVHRFSSQVEEMVQNHMTYSLQDVGGDANWQLVVEEGEMKVYRREVEENGIVLDPLKATHAVKGVTGHEVCNYFWNVDVRNDWETTIENFHVVETLADNAIIIYQTHKRVWPASQRDVLYLSVIRKIPALTENDPETWIVCNFSVDHDSAPLNNRCVRAKINVAMICQTLVSPPEGNQEISRDNILCKITYVANVNPGGWAPASVLRAVAKREYPKFLKRFTSYVQEKTAGKPILF
notes: Protein kinase; Fusion parts are not written as pieces
As for B1, the “^32P incorporation into GIP90 (in vitro phosphorylation with [γ^32P] ATP, Western blot and autoradiography)” value in data set [1] is given as “resulted in ^32P incorporation into GIP90”. In addition, the binding result in data set [2] is on record as “no binding”.
